In the supplement of paper PMC5998384:

Key:
HeLa Kyoto [1] = assay: thermal stability score vs G1/S (z-score of summed log2 fold changes over temperatures); higher = more thermally stable than in G1/S
HeLa Kyoto [2] = assay: melting temperature (median over replicates), in situ; higher = more thermally stable
HeLa Kyoto [3] = assay: solubility in G1/S (NP-40 vs SDS abundance) (log2 ratio); higher = more soluble; details: cell cycle stage: G1/S
HeLa Kyoto [4] = assay: solubility change mitosis vs G1/S (difference of NP-40 vs SDS log2 ratios) (log2 ratio difference); higher = more soluble in mitosis
[5] = cell cycle stage: early G1 (4.5 h after nocodazole release)
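For melting temperature (median over replicates), in situ in this document: HeLa Kyoto cells synchronized by double thymidine or nocodazole block, proteins quantified by TMT10plex mass spectrometry, three independent biological replicates.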
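For solubility change mitosis vs G1/S (difference of NP-40 vs SDS log2 ratios) in this document: synchronized HeLa Kyoto cells (double thymidine block for G1/S, nocodazole release for mitosis), protein amounts in NP-40 versus SDS lysates quantified by mass spectrometry, three biological replicates.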
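For solubility in G1/S (NP-40 vs SDS abundance) in this document: HeLa Kyoto cells arrested at G1/S by double thymidine block, proteins quantified by TMT10plex mass spectrometry in mild NP-40 versus SDS extracts, three biological replicates.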
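For thermal stability score vs G1/S (z-score of summed log2 fold changes over temperatures) in this document: synchronized HeLa Kyoto cells, proteins quantified by TMT10plex mass spectrometry, three biological replicates, mitosis taken 0.5 h after nocodazole release, G1/S directly after double thymidine block.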

Sequence | thermal stability score (HeLa Kyoto [1]; [5]) | thermal stability score (HeLa Kyoto [1]; cell cycle stage: mitosis) | melting temperature (HeLa Kyoto [2]; cell cycle stage: G1/S) | melting temperature (HeLa Kyoto [2]; cell cycle stage: mitosis) | solubility in G1/S (log2) (HeLa Kyoto [3]) | solubility change mitosis (log2) (HeLa Kyoto [4])
MLKKFDKKDEESGGGSNPFQHLEKSAVLQEARVFNETPINPRKCAHILTKILYLINQGEHLGTTEATEAFFAMTKLFQSNDPTLRRMCYLTIKEMSCIAEDVIIVTSSLTKDMTGKEDNYRGPAVRALCQITDSTMLQAIERYMKQAIVDKVPSVSSSALVSSLHLLKCSFDVVKRWVNEAQEAASSDNIMVQYHALGLLYHVRKNDRLAVNKMISKVTRHGLKSPFAYCMMIRVASKQLEEEDGSRDSPLFDFIESCLRNKHEMVVYEAASAIVNLPGCSAKELAPAVSVLQLFCSSPKAALRYAAVRTLNKVAMKHPSAVTACNLDLENLVTDSNRSIATLAITTLLKTGSESSIDRLMKQISSFMSEISDEFKVVVVQAISALCQKYPRKHAVLMNFLFTMLREEGGFEYKRAIVDCIISIIEENSESKETGLSHLCEFIEDCEFTVLATRILHLLGQEGPKTTNPSKYIRFIYNRVVLEHEEVRAGAVSALAKFGAQNEEMLPSILVLLKRCVMDDDNEVRDRATFYLNVLEQKQKALNAGYILNGLTVSIPGLERALQQYTLEPSEKPFDLKSVPLATAPMAEQRTESTPITAVKQPEKVAATRQEIFQEQLAAVPEFRGLGPLFKSSPEPVALTESETEYVIRCTKHTFTNHMVFQFDCTNTLNDQTLENVTVQMEPTEAYEVLCYVPARSLPYNQPGTCYTLVALPKEDPTAVACTFSCMMKFTVKDCDPTTGETDDEGYEDEYVLEDLEVTVADHIQKVMKLNFEAAWDEVGDEFEKEETFTLSTIKTLEEAVGNIVKFLGMHPCERSDKVPDNKNTHTLLLAGVFRGGHDILVRSRLLLLDTVTMQVTARSLEELPVDIILASVG [COPG1] | 0.468 | -0.737 | 52 °C | 51.5 °C | -0.169 | -0.224
MLLAVLLLLPLPSSWFAHGHPLYTRLPPSALQVLSAQGTQALQAAQRSAQWAINRVAMEIQHRSHECRGSGRPRPQALLQDPPEPGPCGERRPSTANVTRAHGRIVGGSAAPPGAWPWLVRLQLGGQPLCGGVLVAASWVLTAAHCFVGAPNELLWTVTLAEGSRGEQAEEVPVNRILPHPKFDPRTFHNDLALVQLWTPVSPGGSARPVCLPQEPQEPPAGTACAIAGWGALFEDGPEAEAVREARVPLLSTDTCRRALGPGLRPSTMLCAGYLAGGVDSCQGDSGGPLTCSEPGPRPREVLFGVTSWGDGCGEPGKPGVYTRVAVFKDWLQEQMSASSSREPSCRELLAWDPPQELQADAARLCAFYARLCPGSQGACARLAHQQCLQRRRRCELRSLAHTLLGLLRNAQELLGPRPGLRRLAPALALPAPALRESPLHPARELRLHSGSRAAGTRFPKRRPEPRGEANGCPGLEPLRQKLAALQGAHAWILQVPSEHLAMNFHEVLADLGSKTLTGLFRAWVRAGLGGRHVAFSGLVGLEPATLARSLPRLLVQALQAFRVAALAEGEPEGPWMDVGQGPGLERKGHHPLNPQVPPARQP [PRSS56] | 1.67 | 3.49 | 53.2 °C | 53.3 °C | 0.296 | -0.116
MLLKTVLLLGHVAQVLMLDNGLLQTPPMGWLAWERFRCNINCDEDPKNCISEQLFMEMADRMAQDGWRDMGYTYLNIDDCWIGGRDASGRLMPDPKRFPHGIPFLADYVHSLGLKLGIYADMGNFTCMGYPGTTLDKVVQDAQTFAEWKVDMLKLDGCFSTPEERAQGYPKMAAALNATGRPIAFSCSWPAYEGGLPPRVNYSLLADICNLWRNYDDIQDSWWSVLSILNWFVEHQDILQPVAGPGHWNDPDMLLIGNFGLSLEQSRAQMALWTVLAAPLLMSTDLRTISAQNMDILQNPLMIKINQDPLGIQGRRIHKEKSLIEVYMRPLSNKASALVFFSCRTDMPYRYHSSLGQLNFTGSVIYEAQDVYSGDIISGLRDETNFTVIINPSGVVMWYLYPIKNLEMSQQ [NAGA] | -1.47 | -2.02 | 54.8 °C | 54.5 °C | 0.254 | -0.171
MLLLPSAADGRGTAITHALTSASTLCQVEPVGRWFEAFVKRRNRNASASFQELEDKKELSEESEDEELQLEEFPMLKTLDPKDWKNQDHYAVLGLGHVRYKATQRQIKAAHKAMVLKHHPDKRKAAGEPIKEGDNDYFTCITKAYEMLSDPVKRRAFNSVDPTFDNSVPSKSEAKDNFFEVFTPVFERNSRWSNKKNVPKLGDMNSSFEDVDIFYSFWYNFDSWREFSYLDEEEKEKAECRDERRWIEKQNRATRAQRKKEEMNRIRTLVDNAYSCDPRIKKFKEEEKAKKEAEKKAKAEAKRKEQEAKEKQRQAELEAARLAKEKEEEEVRQQALLAKKEKDIQKKAIKKERQKLRNSCKTWNHFSDNEAERVKMMEEVEKLCDRLELASLQCLNETLTSCTKEVGKAALEKQIEEINEQIRKEKEEAEARMRQASKNTEKSTGGGGNGSKNWSEDDLQLLIKAVNLFPAGTNSRWEVIANYMNIHSSSGVKRTAKDVIGKAKSLQKLDPHQKDDINKKAFDKFKKEHGVVPQADNATPSERFEGPYTDFTPWTTEEQKLLEQALKTYPVNTPERWEKIAEAVPGRTKKDCMKRYKELVEMVKAKKAAQEQVLNASRAKK [DNAJC2] | 1.17 | 1.39 | 48.6 °C | 48.7 °C | 0.0111 | -0.0365
MLLPAPALRRALLSRPWTGAGLRWKHTSSLKVANEPVLAFTQGSPERDALQKALKDLKGRMEAIPCVVGDEEVWTSDVQYQVSPFNHGHKVAKFCYADKSLLNKAIEAALAARKEWDLKPIADRAQIFLKAADMLSGPRRAEILAKTMVGQGKTVIQAEIDAAAELIDFFRFNAKYAVELEGQQPISVPPSTNSTVYRGLEGFVAAISPFNFTAIGGNLAGAPALMGNVVLWKPSDTAMLASYAVYRILREAGLPPNIIQFVPADGPLFGDTVTSSEHLCGINFTGSVPTFKHLWKQVAQNLDRFHTFPRLAGECGGKNFHFVHRSADVESVVSGTLRSAFEYGGQKCSACSRLYVPHSLWPQIKGRLLEEHSRIKVGDPAEDFGTFFSAVIDAKSFARIKKWLEHARSSPSLTILAGGKCDDSVGYFVEPCIVESKDPQEPIMKEEIFGPVLSVYVYPDDKYKETLQLVDSTTSYGLTGAVFSQDKDVVQEATKVLRNAAGNFYINDKSTGSIVGQQPFGGARASGTNDKPGGPHYILRWTSPQVIKETHKPLGDWSYAYMQ [ALDH4A1] | -0.222 | -0.434 | 51.8 °C | 50.7 °C | 0.0698 | -0.0143
MLLPNILLTGTPGVGKTTLGKELASKSGLKYINVGDLAREEQLYDGYDEEYDCPILDEDRVVDELDNQMREGGVIVDYHGCDFFPERWFHIVFVLRTDTNVLYERLETRGYNEKKLTDNIQCEIFQVLYEEATASYKEEIVHQLPSNKPEELENNVDQILKWIEQWIKDHNS [AK6] | 1.22 | 1.07 | 46.9 °C | 49.8 °C | 0.193 | -0.0162
MLLTVYCVRRDLSEVTFSLQVDADFELHNFRALCELESGIPAAESQIVYAERPLTDNHRSLASYGLKDGDVVILRQKENADPRPPVQFPNLPRIDFSSIAVPGTSSPRQRQPPGTQQSHSSPGEITSSPQGLDNPALLRDMLLANPHELSLLKERNPPLAEALLSGDLEKFSRVLVEQQQDRARREQERIRLFSADPFDLEAQAKIEEDIRQQNIEENMTIAMEEAPESFGQVVMLYINCKVNGHPVKAFVDSGAQMTIMSQACAERCNIMRLVDRRWAGIAKGVGTQKIIGRVHLAQVQIEGDFLPCSFSILEEQPMDMLLGLDMLKRHQCSIDLKKNVLVIGTTGSQTTFLPEGELPECARLAYGAGREDVRPEEIADQELAEALQKSAEDAERQKP [DDI2] | -0.385 | 0.166 | 52.8 °C | 53 °C | 0.489 | -0.11
MLNMWKVRELVDKATNVVMNYSEIESKVREATNDDPWGPSGQLMGEIAKATFMYEQFPELMNMLWSRMLKDNKKNWRRVYKSLLLLAYLIRNGSERVVTSAREHIYDLRSLENYHFVDEHGKDQGINIRQKVKELVEFAQDDDRLREERKKAKKNKDKYVGVSSDSVGGFRYSERYDPEPKSKWDEEWDKNKSAFPFSDKLGELSDKIGSTIDDTISKFRRKDREDSPERCSDSDEEKKARRGRSPKGEFKDEEETVTTKHIHITQATETTTTRHKRTANPSKTIDLGAAAHYTGDKASPDQNASTHTPQSSVKTSVPSSKSSGDLVDLFDGTSQSTGGSADLFGGFADFGSAAASGSFPSQVTATSGNGDFGDWSAFNQAPSGPVASSGEFFGSASQPAVELVSGSQSALGPPPAASNSSDLFDLMGSSQATMTSSQSMNFSMMSTNTVGLGLPMSRSQNTDMVQKSVSKTLPSTWSDPSVNISLDNLLPGMQPSKPQQPSLNTMIQQQNMQQPMNVMTQSFGAVNLSSPSNMLPVRPQTNALIGGPMPMSMPNVMTGTMGMAPLGNTPMMNQSMMGMNMNIGMSAAGMGLTGTMGMGMPNIAMTSGTVQPKQDAFANFANFSK [CLINT1] | 1.76 | 3.07 | 51.6 °C | 51.9 °C | -0.186 | -0.108
MLNVPSQSFPAPRSQQRVASGGRSKVPLKQGRSLMDWIRLTKSGKDLTGLKGRLIEVTEEELKKHNKKDDCWICIRGFVYNVSPYMEYHPGGEDELMRAAGSDGTELFDQVHRWVNYESMLKECLVGRMAIKPAVLKDYREEEKKVLNGMLPKSQVTDTLAKEGPSYPSYDWFQTDSLVTIAIYTKQKDINLDSIIVDHQNDSFRAETIIKDCLYLIHIGLSHEVQEDFSVRVVESVGKIEIVLQKKENTSWDFLGHPLKNHNSLIPRKDTGLYYRKCQLISKEDVTHDTRLFCLMLPPSTHLQVPIGQHVYLKLPITGTEIVKPYTPVSGSLLSEFKEPVLPNNKYIYFLIKIYPTGLFTPELDRLQIGDFVSVSSPEGNFKISKFQELEDLFLLAAGTGFTPMVKILNYALTDIPSLRKVKLMFFNKTEDDIIWRSQLEKLAFKDKRLDVEFVLSAPISEWNGKQGHISPALLSEFLKRNLDKSKVLVCICGPVPFTEQGVRLLHDLNFSKNEIHSFTA [CYB5R4] | -0.0239 | -0.629 | 53.6 °C | 53.7 °C | 0.0176 | -0.0937
MLPARLPFRLLSLFLRGSAPTAARHGLREPLLERRCAAASSFQHSSSLGRELPYDPVDTEGFGEGGDMQERFLFPEYILDPEPQPTREKQLQELQQQQEEEERQRQQRREERRQQNLRARSREHPVVGHPDPALPPSGVNCSGCGAELHCQDAGVPGYLPREKFLRTAEADGGLARTVCQRCWLLSHHRRALRLQVSREQYLELVSAALRRPGPSLVLYMVDLLDLPDALLPDLPALVGPKQLIVLGNKVDLLPQDAPGYRQRLRERLWEDCARAGLLLAPGHQGPQRPVKDEPQDGENPNPPNWSRTVVRDVRLISAKTGYGVEELISALQRSWRYRGDVYLVGATNAGKSTLFNTLLESDYCTAKGSEAIDRATISPWPGTTLNLLKFPICNPTPYRMFKRHQRLKKDSTQAEEDLSEQEQNQLNVLKKHGYVVGRVGRTFLYSEEQKDNIPFEFDADSLAFDMENDPVMGTHKSTKQVELTAQDVKDAHWFYDTPGITKENCILNLLTEKEVNIVLPTQSIVPRTFVLKPGMVLFLGAIGRIDFLQGNQSAWFTVVASNILPVHITSLDRADALYQKHAGHTLLQIPMGGKERMAGFPPLVAEDIMLKEGLGASEAVADIKFSSAGWVSVTPNFKDRLHLRGYTPEGTVLTVRPPLLPYIVNIKGQRIKKSVAYKTKKPPSLMYNVRKKKGKINV [NOA1] | -0.456 | 0.655 | 49.8 °C | 50.1 °C | 0.131 | -0.187
